The source of these data is article PMC4192513, “A Novel Protein-Protein Interaction in the RES (REtention and Splicing) Complex*” (The Journal of Biological Chemistry, 2014).

In experiment [1] the target is T1, Snu17p (residues 1-113) (S. cerevisiae, UniProt P40565 1-113).
T1 construct: 15N- or 15N/13C-labelled for NMR; also called Snu17p RRM with N-terminal unstructured extension; source: E. coli BL21(DE3) pLysS, purified (Ni-NTA, TEV cleavage, second Ni-NTA, SEC Superdex 75); not shown: His6, N-terminal, cleaved; GST, N-terminal, cleaved
T1 sequence (looked up): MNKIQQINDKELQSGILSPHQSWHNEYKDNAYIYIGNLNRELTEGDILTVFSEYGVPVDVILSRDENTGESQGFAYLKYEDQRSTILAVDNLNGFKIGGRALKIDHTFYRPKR
Kind of experiment: ITC; VP-ITC, 25 °C, NMR buffer (20 mM sodium phosphate pH 6.3, 25 mM NaCl, 2 mM DTT or TCEP); Snu17p (residues 1-113) 30-70 uM in the cell, Bud13p ligands 0.6-1.1 mM in the syringe; one- or two-step binding models. As to conditions: both partners purified.

The target in experiment [2] is T1, Snu17p (residues 1-113). Kind of experiment: NMR titration; 1H,15N correlation (HSQC) spectra of 15N-labelled Snu17p (residues 1-113) on addition of Bud13p peptides; 298 K; 20 mM sodium phosphate pH 6.3, 25 mM NaCl, 2 mM DTT or TCEP. The following applies: both partners purified.

B1: Bud13p peptide (residues 221-242) (peptide, UniProt P46947 221-242, looked up)
peptide: ENRFAIMPGSRWDGVHRSNGFE
notes: Bud13p, S. cerevisiae, residues 221-242; also called 22-mer Bud13p peptide; shorter Bud13p peptide; source: synthetic peptide, bought: Peptide Specialty Laboratories (Heidelberg), dialyzed
As for B1, the “fold weaker dissociation constant than the longer Bud13p ligands” value with Snu17p (residues 1-113) [1] stood at 50 fold.

B2: Bud13p (residues 201-266) (domain or fragment)
chain: not shown
notes: also called 66-mer Bud13p peptide; very long Bud13p peptide; source: E. coli BL21(DE3) pLysS, purified (Ni-NTA, TEV cleavage, second Ni-NTA, SEC Superdex 75); not shown: His6, N-terminal, cleaved; GST, N-terminal, cleaved
Take B2: the binding result in the experiment with Snu17p (residues 1-113) [2] is listed as “binds”.
